These results are taken from US20070098706A1 (University of Texas, published 2007).

To fix the notation:
B1: GST-(SH3)+ (other)
chain: RGLQLQCRGAGGRPVLYQVVAQHSYSAQGPEDLGFRQGDTVDVLCEEPDVPLAVDQAWLEGHCDGRIGIFPKCFVVPAGPRMSGAPGRLPRSQQGDQP
notes: Cloned at the EcoRI site of pGEX-3X in frame with GST; the linker is not described; also called fusion protein of GST and the C-terminal NOXA1(SH3+) polypeptide; not shown: glutathione-S-transferase (GST) encoded by vector pGEX-3X
B2: human p47^phox (other, UniProt P14598 1-390, looked up)
chain: MGDTFIRHIALLGFEKRFVPSQHYVYMFLVKWQDLSEKVVYRRFTEIYEFHKTLKEMFPIEAGAINPENRIIPHLPAPKWFDGQRAAENRQGTLTEYCSTLMSLPTKISRCPHLLDFFKVRPDDLKLPTDNQTKKPETYLMPKDGKSTATDITGPIILQTYRAIANYEKTSGSEMALSTGDVVEVVEKSESGWWFCQMKAKRGWIPASFLEPLDSPDETEDPEPNYAGEPYVAIKAYTAVEGDEVSLLEGEAVEVIHKLLDGWWVIRKDDVTGYFPSMYLQKSGQDVSQAQRQIKRGAPPRRSSIRNAHSIHQRSRKRLSQDAYRRNSVRFLQQRRRQARPGPQSPGSPLEEERQTQRSKPQPAVPPRPSADLILNRCSESTKRKLASAV
modifications: labeled in vitro with [35S]-methionine/[35S]-cysteine
notes: no residue limits are printed

For assay [1], the target named is B2. Kind of assay: GST pull-down of 35S-labelled p47phox with isolated SH3-containing polypeptides. The procedure: (§1) Binding interactions are carried out between GST, GST-NOXA1, GST-NOXA1_{SH3+)}, GST-(SH3wt) and GST-(SH3+) fusion proteins immobilized on GSH-Sepharose, and the in vitro synthesized [³⁵S]-labeled target proteins. Volumes of fusion protein bacterial lysates, previously determined to give equal loading of the GSH-Sepharose, are mixed for 5 min at room temperature with 250 μl of a 50% suspension of washed GSH-Sepharose in PBS (137 mM NaCl, 2.68 mM KCl, […] Na2HPO4, pH 7.3). The suspension is washed twice and resuspended to 500 μl in PBS with 10 mM DTT. Human NOX1, NOX2, p47^phox and MBP-NOXO1₍₂₈₈₋₃₇₀₎ are synthesized and labeled in vitro with [³⁵S]-methlionine/[³⁵S]-cysteine (Redivue Pro-mix L-[³⁵S] labeling mix, Amersham Biosciences, Inc. # AGQ0080) using the TNT® Coupled Reticulocyte Lysate System (Promega) and T7 RNA polymerase. A 24 μl aliquot of the labeling reaction is mixed with 476 μl of the resuspended immobilized GST fusion protein for 15 min at room temperature. The gel pellet is washed 4X with 500 μl of PBS/10 mM DTT/0.05% Triton X-100. […] The entire volume of the denatured samples is separated on 9% SDS-PAGE and analyzed by fluorography. A sample of the original binding gel is analyzed by denaturing SDS-PAGE and Coomassie staining to confirnm the loading of the GST proteins. […]

Assay [2] has as its target T1, GST-NOXA1(SH3+) (human, UniProt Q86UR1 1-476).
T1 construct: the vector-encoded linker is not described; Immobilised on GSH-Sepharose; not shown: glutathione-S-transferase (GST) encoded by vector pGEX-3X
T1 sequence: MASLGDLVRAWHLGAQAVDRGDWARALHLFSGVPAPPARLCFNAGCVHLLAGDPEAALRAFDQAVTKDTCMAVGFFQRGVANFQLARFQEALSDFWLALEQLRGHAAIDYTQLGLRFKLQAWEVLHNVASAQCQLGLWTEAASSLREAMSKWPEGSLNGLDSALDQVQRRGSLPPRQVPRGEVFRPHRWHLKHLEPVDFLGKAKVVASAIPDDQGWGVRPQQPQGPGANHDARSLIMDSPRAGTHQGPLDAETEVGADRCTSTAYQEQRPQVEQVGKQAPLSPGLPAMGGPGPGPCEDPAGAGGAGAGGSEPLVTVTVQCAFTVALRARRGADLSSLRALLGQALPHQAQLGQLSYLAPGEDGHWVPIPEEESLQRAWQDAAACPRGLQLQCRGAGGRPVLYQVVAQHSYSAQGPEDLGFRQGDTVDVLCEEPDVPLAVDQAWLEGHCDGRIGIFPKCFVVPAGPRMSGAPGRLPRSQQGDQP
Kind of assay: GST pull-down of 35S-labelled p47phox, SDS-PAGE and fluorography. On the procedure:
as §1

The target of assay [3] is T1, GST-NOXA1(SH3+). Briefly: GST pull-down of 35S-labelled MBP-NOXO1(288-370), SDS-PAGE and fluorography. On the procedure: as §1
The target of assay [4] is B1. Briefly: GST pull-down of 35S-labelled MBP-NOXO1(288-370) with isolated SH3-containing polypeptides. On the procedure:
as §1

With B1, in assay [1], the binding result is given as “no binding”.
For the molecule B2, in assay [2], the binding result is “no binding”.

B3: MBP-NOXO1(288-370) (other, human, UniProt Q8NFA2 294-376, looked up, not shown: large carriers)
chain: EGLGALLSGTGFRGGDDPAGEARGFPEPSQATAPPPTVPTRPSPGAIQSRCCTVTRRALERRPRRQGRPRGCVDSVPHPTTEQ
modifications: labeled in vitro with [35S]-methionine/[35S]-cysteine
notes: range 294-376; Cloned at the SacI/XhoI sites of pET23bMBPH6 in frame with MBP; linker and any vector tag are not described; Made by in vitro coupled transcription/translation; also called NBP-NOXO1(288-370)
B3: the binding result in assay [3] and in assay [4] was “no binding” throughout.
